Source: publication PMC10267149, “The structure of phosphatidylinositol remodeling MBOAT7 reveals its catalytic mechanism and enables inhibitor identification” (Nature Communications, 2023)

Substrate: CCCCC/C=C\C/C=C\C/C=C\C/C=C\CCCC(=O)SCCNC(=O)CCNC(=O)[C@H](O)C(C)(C)COP(=O)(O)OP(=O)(O)OC[C@H]1O[C@@H](n2cnc3c(N)ncnc32)[C@H](O)[C@@H]1OP(=O)(O)O
Assay: fluorescence assay of CoA-SH release with CPM
Format: biochemical, Homo sapiens
Conditions: PMAL-C8 reconstituted, 100 µM lyso-PI, pH 7.5, 37 °C, 2 mg/ml BSA

B1: MBOAT7 (Homo sapiens) (protein)
chain: MSPEEWTYLVVLLISIPIGFLFKKAGPGLKRWGAAAVGLGLTLFTCGPHTLHSLVTILGTWALIQAQPCSCHALALAWTFSYLLFFRALSLLGLPTPTPFTNAVQLLLTLKLVSLASEVQDLHLAQRKEMASGFSKGPTLGLLPDVPSLMETLSYSYCYVGIMTGPFFRYRTYLDWLEQPFPGAVPSLRPLLRRAWPAPLFGLLFLLSSHLFPLEAVREDAFYARPLPARLFYMIPVFFAFRMRFYVAWIAAECGCIAAGFGAYPVAAKARAGGGPTLQCPPPSSPEKAASLEYDYETIRNIDCYSTDFCVRVRDGMRYWNMTVQWWLAQYIYKSAPARSYVLRSAWTMLLSAYWHGLHPGYYLSFLTIPLCLAAEGRLESALRGRLSPGGQKAWDWVHWFLKMRAYDYMCMGFVLLSLADTLRYWASIYFCIHFLALAALGLGLALGGGSPSRRKAASQPTSLAPEKLREE
notes: full-length (1-472), C-terminal GFP-strepII removed by TEV; expressed in HEK293 freestyle cells; digitonin then amphipol PMAL-C8; monomer, 53 kDa
Km: 46 µM
